Measurements as given in patent US20240287177A1 (Merck KGaA, published 2024).

T1: recombinant human NKp30 extracellular domain, his-tagged (human, UniProt O14931 19-135)
T1 construct: BLI used human NKp30 bought from Abcam (his-tagged ECD); also called rh NKp30 ECD; human NKp30 (Abcam); not shown: his tag
T1 sequence: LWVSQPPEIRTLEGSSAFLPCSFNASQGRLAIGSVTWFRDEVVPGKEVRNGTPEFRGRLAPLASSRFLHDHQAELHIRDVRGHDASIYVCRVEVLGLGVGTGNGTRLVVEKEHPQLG

B1: VHH5 SEEDbody eff- (bispecific antibody, part only; not given: silenced SEED Fc and cetuximab Fab, V domains shown, not shown: another chain or arm of the molecule; a dimerising Fc or GST; small tags and cut ends)
VHH: DVQLQESGGGLVQPGESLRLSCLVSGVTYHFYDITWFRQAPGLEREGVSCISYASGSTKFADSVKGRFTISRDNAKNAVYLQMNSLKPEDTAVYFCATQGSGSCSDFMSADSVLSWGQGTQVTVSS
B2: VHH6 SEEDbody eff- (bispecific antibody, part only; not given: silenced SEED Fc and cetuximab Fab, V domains shown, not shown: another chain or arm of the molecule; a dimerising Fc or GST; small tags and cut ends)
VHH: DVQLQESGGGLVQTGGSLRLSCAASGLPFSKYAIAWFRQAPGKESEFLVVVSWSGDKFYQDNMKGRCTISRDNAKNTAYLQINSLQPEDTAVYYCAASGSYPVTDRYFYNFWGQGTQVTVSS
B3: VHH7 SEEDbody eff- (bispecific antibody, part only; not given: silenced SEED Fc and cetuximab Fab, V domains shown, not shown: another chain or arm of the molecule; a dimerising Fc or GST; small tags and cut ends)
VHH: DVQLQESGGGLAQPGGSLRLSCAASGFTFSSYDMGWYRQVPGKECELVAAIFSAGGSTIYADSVKGRFTISRDNAKNTVFLQMNSLKPEDTAVYYCNKAPPFTTIQPTCVMIDTQLGAWGQGTQVTVSS
B4: VHH8 SEEDbody eff- (bispecific antibody, part only; not given: silenced SEED Fc and cetuximab Fab, V domains shown, not shown: another chain or arm of the molecule; a dimerising Fc or GST; small tags and cut ends)
VHH: DVQLQESGGGLAQPGGSLRLSCAASGFTFSSYDMGWYRQAPGKECELVAAIFSADGSTIYADSVKGRFTISSDNAKNTVFLQMNSLKPEDTAVYYCNKAPPFTTIQPMCVMIDTQLGAWGQGTQVTVSS
B5: VHH9 SEEDbody eff- (bispecific antibody, part only; not given: silenced SEED Fc and cetuximab Fab, V domains shown, not shown: another chain or arm of the molecule; a dimerising Fc or GST)
VHH: DVQLQESGGGLVQAGGSLRLSCAASGRGGASYAMGWFRQAPGKEREFVAAISWTGDTTYNVDSVKGRFTISSDNAKNPVYLDMSSLKPEDTAVYYCAAAHWTRVVAKGAMADEKKYEYWGQGTQVTVSS
B6: VHH10 SEEDbody eff- (bispecific antibody, part only; not given: silenced SEED Fc and cetuximab Fab, V domains shown, not shown: another chain or arm of the molecule; a dimerising Fc or GST; small tags and cut ends)
VHH: DVQLQESGGGSVQAGGSLRLSCAASGRTFSSNFMGWFRQAPNKDREFVAAIHWSGGSRAYADSVKGRFTISRDNTKDTVYLLVNSLKLEDTAVYYCAAEISWQTTGWTNLGSWGQGTQVTVSS
B7: VHH11 SEEDbody eff- (bispecific antibody, part only; not given: silenced SEED Fc and cetuximab Fab, V domains shown, not shown: another chain or arm of the molecule; a dimerising Fc or GST; small tags and cut ends)
VHH: DVQLQESGGGLVQAGGSLRLSCAASGRTFSSDFMGWFRQAPGKEREFVAAIHWSGGSTSYADSVKGRFTISRDNAKDTVYLLMNSLKLEDTAVYYCAAEIRWLTTGWANLGSWGQGTQVTVSS
B8: VHH12 SEEDbody eff- (bispecific antibody, part only; not given: silenced SEED Fc and cetuximab Fab, V domains shown, not shown: another chain or arm of the molecule; a dimerising Fc or GST; small tags and cut ends)
VHH: DVQLQESGGGLVQAGGSLRLSCAASGRTFSSDFMGWFRQAPGKEREFVAAIHWSGGSRSYADSVKGRFTISRDNAKDTVYLLMNSLKLEDTAVYYCAAEIRWQTTGWANLGSWGQGTQVTVSS
B9: VHH13 SEEDbody eff- (bispecific antibody, part only; not given: silenced SEED Fc and cetuximab Fab, V domains shown, not shown: another chain or arm of the molecule; a dimerising Fc or GST; small tags and cut ends)
VHH: DVQLQESGGGLAQPGGPLRLSCAASGRTFTSDFMGWFRQAPGKEREFVAAIHWSGGSRSYADSVKGRFTISRDNAKDTVYLLMNSLKLEDTAVYYCAAEIRWQTAGWVNLGSWGQGTQVTVSS
B10: VHH14 SEEDbody eff- (bispecific antibody, part only; not given: silenced SEED Fc and cetuximab Fab, V domains shown, not shown: another chain or arm of the molecule; a dimerising Fc or GST; small tags and cut ends)
VHH: DVQLQESGGGLVQPGGSLRLSCEASGVTFNFYSMTWYRQAPGKERELVADITSEGRTEYAHSVKGRFIISRDDFGTMVYLQMNSLKPEDTAVYYCYTGGSWGQGTQVTVSS
B11: VHH15 SEEDbody eff- (bispecific antibody, part only; not given: silenced SEED Fc and cetuximab Fab, V domains shown, not shown: another chain or arm of the molecule; a dimerising Fc or GST; small tags and cut ends)
VHH: DVQLQESGGGLVQAGGSLRLSCAVSGSTFRLNVMGWYRQAPGKLRDLVAGITADGGVTNYADSVKGRFIISRDNAKNTVYLQMNSLKPEDTAIYYCNTAPANWGSWGQGTQVTVSS
B12: VHH16 SEEDbody eff- (bispecific antibody, part only; not given: silenced SEED Fc and cetuximab Fab, V domains shown, not shown: another chain or arm of the molecule; a dimerising Fc or GST; small tags and cut ends)
VHH: DVQLQESGGGLVQPGGSLRLSCTASGSIFSSLTMAWWRQAPGKQRELVAGITTDGSTDYADSVKGRFTISRDNAKNTVYLQMDSLKPEDTAVYYCNKSPYYDPTDYDSWGQGTQVTVSS
B13: VHH4 SEEDbody eff- (bispecific antibody, part only; not given: silenced SEED Fc and cetuximab Fab, V domains shown, not shown: another chain or arm of the molecule; a dimerising Fc or GST; small tags and cut ends)
VHH: DVQLQESGGGLVQPGESLRLSCLVSGVTYHFYDITWFRQAPGLEREGVSCISYASGSTKFADSVKGRFTISRDNAKNAVYLQMNSLKPEDTAVYFCAMQGSGSCSDFMSADSVLSWGQGTQVTVSS
B14: VHH3 SEEDbody eff- (bispecific antibody, part only; not given: silenced SEED Fc and cetuximab Fab, V domains shown, not shown: another chain or arm of the molecule; a dimerising Fc or GST; small tags and cut ends)
VHH: DVQLQESGGGLVQPGESLKLSCLVSGVTYHFYDITWFRQAPGLEREGVSCISYASGTTKFADSVKGRFTISRDNAKNAVYLEMNSLKPEDTAVYFCATQGSGSCSDFMSAGSVLSWGQGTQVTVSS
B15: VHH2 (parental, as tested in Example 9) (VHH)
VHH: DVQLQESGGGLVQAGGSLRLSCAVSGQTWTNYHIGWFRQAPGKARESVASIEWGGRGTYATDSVKGRFTISRDNAKNTVYLQMNSLKPEDTAVYYCAAQSSSRSPLESNYDYWGQGTQVTVSS
notes: expressed and measured by BLI 'as described in Experiment 1' (there: bispecific SEEDbody on anti-human Fc sensors)
B16: VHH2.1 (humanized) (VHH)
VHH: EVQLVESGGGVVQAGGSLRLSCAVSGQTWTNYHIGWFRQAPGKARESVASIEWGGRGTYATDSVKGRFTISRDNAKNTVYLQMNSLRAEDTAVYYCAAQSSSRSPLESNYDYWGQGTLVTVSS
notes: as for B15
B17: VHH2.2 (humanized) (VHH)
VHH: EVQLVESGGGVVQPGGSLRLSCAVSGQTWTNYHIGWFRQAPGKARESVASIEWGGRGTYATDSVKGRFTISRDNAKNTVYLQMNSLRAEDTAVYYCAAQSSSRSPLESNYDYWGQGTLVTVSS
notes: as for B15
B18: VHH2.3 (humanized) (VHH)
VHH: EVQLVESGGGVVQPGGSLRLSCAVSGQTWTNYHIGWFRQAPGKARESVASIEWGGRGTYATDSVKGRFTISRDNAKNTLYLQMNSLRAEDTAVYYCAAQSSSRSPLESNYDYWGQGTLVTVSS
notes: as for B15
B19: VHH2.5 (humanized) (VHH)
VHH: EVQLVESGGGVVQPGGSLRLSCAVSGQTWTNYHIGWFRQAPGKGLESVASIEWGGRGTYATDSVKGRFTISRDNAKNTVYLQMNSLRAEDTAVYYCAAQSSSRSPLESNYDYWGQGTLVTVSS
notes: as for B15
B20: VHH2.6 (humanized) (VHH)
VHH: EVQLVESGGGVVQPGGSLRLSCAVSGQTWTNYHIGWVRQAPGKGLESVASIEWGGRGTYATDSVKGRFTISRDNAKNTVYLQMNSLRAEDTAVYYCAAQSSSRSPLESNYDYWGQGTLVTVSS
notes: as for B15
B21: VHH2.7 (humanized) (VHH)
VHH: EVQLVESGGGVVQPGGSLRLSCAVSGQTWTNYHIGWFRQAPGKGLESVASIEWGGRGTYATDSVKGRFTISRDNAKNTLYLQMNSLRAEDTAVYYCAAQSSSRSPLESNYDYWGQGTLVTVSS
notes: as for B15
B22: VHH2.8 (humanized) (VHH)
VHH: EVQLVESGGGVVQPGGSLRLSCAVSGQTWTNYHIGWFRQAPGKGLEWVASIEWGGRGTYATDSVKGRFTISRDNAKNTLYLQMNSLRAEDTAVYYCAAQSSSRSPLESNYDYWGQGTLVTVSS
notes: as for B15
B23: VHH2.11 (humanized) (VHH)
VHH: EVQLVESGGGVVQPGGSLRLSCAASGQTWTNYHIGWFRQAPGKGLESVASIEWGGRGTYATDSVKGRFTISRDNAKNTVYLQMNSLRAEDTAVYYCAAQSSSRSPLESNYDYWGQGTLVTVSS
notes: as for B15

Key:
[1] = molecular target: NKp30 on human NK cells (human) (UniProt O14931); assay: cell-based or functional assay
[2] = molecular target: recombinant human NKp30 extracellular domain, his-tagged (human) (UniProt O14931); assay: BLI, SEEDbody on anti-human Fc sensors, soluble NKp30, 1:1 fit
[3] = molecular target: T1, recombinant human NKp30 extracellular …; assay: BLI as in Example 1
[4] = molecular target: T1, recombinant human NKp30 extracellular …; assay: BLI as in Example 1, maximum binding capacity

Binder | EC50 (nM), MNC based killing of A431 cells, E:T 80:1 [1] [nM] | Max. IFNγ release (pg/ml), NK cells with A431 cells [1] [pg/mL] | Max. Killing (% Lysis), MNC based killing of A431 cells, E:T 80:1 [1] [% Lysis] | Max. TNFα release (pg/ml), NK cells with A431 cells [1] [pg/mL] | Kd [2] [nM] | koff [2] [s⁻¹] | kon [2] [M⁻¹ s⁻¹] | Kd [3] [nM] | Emax (nm) [4] [nm]
B1 | 0.00286 | 635 | 56 | 119 | 0.289 | 0.000186 | 643000 | – | –
B2 | 1.43 | – | 42 | – | 292 | 0.129 | 442000 | – | –
B3 | 0.0433 | – | 49 | – | 52.4 | 0.00352 | 67200 | – | –
B4 | 0.00899 | 595 | 50 | 109 | 0.322 | 0.000134 | 416000 | – | –
B5 | 0.0161 | – | 53 | – | 4.99 | 0.00187 | 376000 | – | –
B6 | 0.0146 | – | 51 | – | 0.253 | 8.75e-05 | 346000 | – | –
B7 | 0.0111 | – | 50 | – | 1.02 | 0.000415 | 405000 | – | –
B8 | 0.00207 | – | 49 | – | 0.982 | 0.000898 | 914000 | – | –
B9 | 0.00241 | – | 51 | – | 0.211 | 0.000162 | 766000 | – | –
B10 | 0.00144 | – | 51 | – | 0.31 | 0.000144 | 464000 | – | –
B11 | 0.0013 | – | 50 | – | < 0.001 | < 1e-07 | 440000 | – | –
B12 | 0.00128 | 515 | 50 | 114 | 0.139 | 9.28e-05 | 666000 | – | –
B13 | 0.00592 | 560 | 55 | 129 | 2.57 | 0.000218 | 84800 | – | –
B14 | 0.00284 | – | 53 | – | 0.281 | 0.00017 | 604000 | – | –
B15 | – | – | – | – | – | – | – | 2.88 | 0.17
B16 | – | – | – | – | – | – | – | 2.91 | 0.18
B17 | – | – | – | – | – | – | – | 2.1 | 0.15
B18 | – | – | – | – | – | – | – | 9.97 | 0.13
B19 | – | – | – | – | – | – | – | 2.92 | 0.11
B20 | – | – | – | – | – | – | – | 27.6 | 0.07
B21 | – | – | – | – | – | – | – | 9.76 | 0.1
B22 | – | – | – | – | – | – | – | 6.61 | 0.1
B23 | – | – | – | – | – | – | – | 4.7 | 0.16
